Test results: the supplement of paper PMC12455559

Experiment: purified protein yield per well (BCA); higher = higher soluble expression
Outline: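 Values under 25 ug (0.1 mg/mL) are below the detection threshold. Purified protein yield per well was quantified with the Pierce Rapid Gold BCA kit after candidate enzymes, expressed in E. coli C41(DE3), were captured on Ni-charged magnetic beads and released by SUMO protease on an OT-2 robot. Cultures were 2 mL autoinduction with 100 µg/mL kanamycin, run 2 h at 37 °C and then 40 h at 18 °C.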

Sequence	purified protein yield per well [µg]
QTTAPTSASLNASAGPLSVSTASVTAPRGFGGGTIYYPTTQARYGVIAISPGFTATQTSIAWLGRRIATHGFVVITLNTLTTLDQPDSRANQLMAALNHVINSSSSAVKARIDTSRLAVAGHSMGGGGALIAARDNPSLKASYPLTPWNINSAFSTVRVPTMIVGADGDTVAPVGTHARPFYAALPGATSKAYGELNGATHFSPNSTNTPIGRYGVAWMKRFLDGDTRYSTFLCGTEHTRYATALVFDRYNQNCPY [ESM122]	< 25
AAPAHHAAPAHAAVHHHAPFALRTTVVPRTAVTKFGGGVIYEPRDTGKPVLGAVVITPGFTDTNADEKEYAELVASQGFVAFAIDTLDTGDIPADRATQMLAAVDWLTGSSPVKAEVSPDRVALLGYSFGGGGAMQAAQSRPSIKAVVGMMPFDAPPESDPNATTPAYPRMTTPTLVITGQEDDVADPKYFGKPAYDSIPAGTPKQYLELKGLGHGAGEHMPVPTVRTAVTAFLKRYLDGNSAYGRFICPAPKAVGPISASLSSCPRG [ESM110]	< 25
STPVHHAAARTAVPHHAPFAVRTTVVPKTAVKAFGGGVIYTPQDTGKPVLGAVVITPGFTDTNADEKATAELVASQGFVAFAIDTLDVYDLPDQRATEMLAAADYLTGTSAVKSEVSANDVALLGYSFGGGGTMQAAQSRPSIKAAVTLMPYDFPPADQPDAQYPAYPKLTVPTLVITGQKDDVAVPADFGKPAYDSIPAGTPKQYLELKGLDHYAGHRAPTPTIRTAVTAFLKRYLDGNSAYAKFICPAPKVGGPITASISSCPKG [ESM164]	< 25
DEIGSAPTAATITGNGSFATASTSVSSPSGFRGGQVYYPSTAGTYPVIAVVPGYLSYWSSISWLGPRLASWGFVVVGIETNSIYDQPASRGSQLRAALTWAVNTSPTTVRSRVDANRQGVAGWSMGGGGSLEALKADTSGRIKAAVPMAPWNSDQSWPEVTESVAIVGGQSDSVAPVSSHSIPFYNSLAGPKSYVELAGASHFFPNSDNPSLSRMIVSWFKRWINNDTRFTTFTCGFTGSAISSFRTNAC [ESM178]	27.5
QSAGGNPYAIGPDPTASSLEASSGPFGYTSTTIPSSEATGYGGGTVYYPANVNIATGGIVVVPGYGATQSNISWWGPRLASNGFVVYTIDTTNIYDLPAQRAKEIMAAVAQLKTFSTTTGNEIYGKVDTNRIGIMGGSFGGGGTLIAETTHPQLKAAIPFVPKIASGNPDLSKITIPTLIIGCQEDQVAPPKSYAIPYYSAIPEQNHKAYLEISNGQHLCASTQGSDQNKPIIGKYGVAWMKRFIDNDSRYNPYLCGSPHQTDVSNSTVISGYKDTCPY [DP020]	< 25
QTSAPTSSSLNATSGYLSVASENVSSLSASGFGGGTIYYPSTSGQYGLIAISPGFTATESSVAWIGRKLASHGFVAIVINTNTTLDQPASRARQLRAALDHARLRASSTVRSRIDASRQAVAGHSMGGGGSLIAAEDDPTLKASFPLTPWNTTTSFTNVRVPTMIFGADGDTIAAVAAHARPFYASIPSSTKKAYAELNGATHFTPNSRNEAIGRYGVAWMKRFMDNDTRYSTFLCGSEHNSYNTSLRFDRYNSNCPY [ESM123]	< 25
FTASQSSIQWYGPLLAGEGFVVITIDTNTIFDQPDSRATQLLAALDYLTGSSDVRHIVDPNRLAVAGWSMGGGGSLEAAVRRPSLKAAIPLAGWHTTKTFNTAVPTLVVACENDAVAGNAQHSGPFYDGLPASTPKAYLEIAGGDHTCVGSYDINIATPVVAWAKRWVNGDTSASAQLCPPKPIGGPISDSKANCPY [ESM171]	< 25
QVGPTPTSSSLNVTAGPFAVSSSRVFSPRGFGGGTIYYPTTSGQYGVVAMSPGFTATESSIAWLGRRLATHGLVVITINTNSTYDQPASRATQLMAALNHVLNSASSTVRSRVDSSKLAVAGHSMGGGGALIAAQNNPTLKAALPLTPWNTSTRFDGVRVPTLIVGADGDSVARVASHARPFYASLPATTFKAYAELNGASHFAPNSTNTPIGRYGVAWMKRFVDADTRYSPFLCGAAHDAYATSAVFDRYNDNCPY [ESM085]	< 25
MGPWLASFGFVVLGIETNSRTDGADARATQLLAGLDYLTRTSPVRSRVDPNRLSVMGHSAGGAGTLLAALRRPSLRTAVGLAPGTPGNNLNMSTTQVPTLLLSGQNDGTVTPSYVQGIYNTLPAGVEHAWAELAGNDHLSFTRSNPTEMRLLIPWLKIFLDYDTRYTQFLCPLSNSTGVSRYSSTCPLVPPGGPTVPPTTTPPPTTPPPTTPPTTPPPTTPPPTTPPPGTACTATYRTIGSWSGGFQGEVTVTAGSAAVDGWTARWQLASGQGISQVWNGTLSTSGTTVTVRNADYNGTLAPGTSTTFGFLGTGTPNSPSPTCTSP [ESM008]	< 25
QTSAPTSASLNASSGPLSVSTASVTLPRGFGGGTIYYPTVAAKYGVIAISPGFTATQSSIAWLGRRIATHGFVVITINTNTTLDQPDSRATQLVAALNHVLNSSGTAVRSRIDPARLAVAGHSMGGGGSLIAARDNPTLKASYPMTPWNISSNFSTVRVPTMIIGADGDTVAPVGTHARPFYASLPSSTFKAYGELNGATHFAPNTTSTPIGRYAVAWMKRFVDGDTRYSPFLCGAQHTSYATGLVFDRYNQNCPY [ESM054]	< 25
VQNGPNPTLDAIKADGPYAITSQAVAGNGFGAGTIYMPTAAGKYALVAICPGFVSAQSTMAGMAKRLATHGFVVVAISTNTLFDFPSSRATQLLAALKTVSALNTGAVVGKIDTTRQAVSGWSMGGGGTLEAAGATPGLVAAVAFAPWDTSTTKMKVNKVPAAIIGGSSDVIAPVASHSQKFYDAIPATTPKLLAVINGADHFFPTKASEPASYTNISWMKRFADGDTRYSSFLNGNDAALSSFSSNGPF [ESM056]	< 25
APVAVAPAAVPVHGVDPTDANLRQPVGDLAFSQVTIADSQTPGFGAATIYYPDDTTHGTYGGVAVVPGYTSPQSAVAWLGPRLASRGFVVITIATNSIYDQPTTRGRELLSALDYLTTSSPAAVRQRLDPQRLAVMGHSMGGGGALYAVSQRTTIKAAVPLAPYNQDKTWQTVKTPTMLMAGSADNVAGIGTFSRPFYRSMTGARERALVNVQGADHGTFVRENATIGKYATAWLKRFVDEDTRYDQFLCPAPTGDGLTEYTASCPNA [DP012]	< 25
DEIGQAPTAANITGNGSFAVTSAAVTGASGFGGGTVYYPTTAGTYPVVAIAPGFTQAWSAIQWLGPRLSSWGFVVVGINTNSSLDFPASRGTQLLAALNWAVASAPAAVTSRADGTRRGVAGYSMGGGGTLEALSQDTTGAVKAGVPMAPWHTDTTWQQVTEPVFILGGQNDSTAPVASHAKPMYNSLGGPKTYVELAGAPHSFPRTDNATTSRALVSWFKRWLNGDARFTPFTCGFTGTAISAYQTTAC [ESM099]	< 25
ITPPPDDDGNNGGGDTCQQDCGFERGPNPTVASLESRSGPFSVRTSSVSSRVSGFGGGTIHYPTGQTGTMGAIVVIPGFVSAESSIAWWGTQLAAHGFVVMTIDTNSGTDQPPSRARQINAALDYLVSQNTASGSPVRGMIDPSRLGVAGWSMGGGGTLRVATEGRIKAAMPLAPWDTGSTQFRSVKAQTLIFACESDAIAPVNSHASPFYNALPNNINKAFVEISRGSHYCANGGNSNNSLLSRLGVSWMKLHLDQDQRYNQFICGPRHESDRSISEYRGNCSN [ESM115]	< 25
QTSDPTSASLNASAGPLSVSTASVTAPRGFGGGTIYYPTTQARYGVIAISPGFTATETSIAWLGRRIATHGFVVITLNTLTTLDQPASRANQLMAALTYVVNSSSSAVKARIDTARLAVAGHSMGGGGALIAARDNPTLKASYPLTPWNSSTSFSTVRVPTMIVGADGDTIAPVATHARPFYASLPSATSKAYGELNNGTHFSPNSTNTPIGRYGVAWMKRFVDGDTRYSTFLCGTEHTRYATALVFDRFNQNCPY [ESM191]	< 25
MGVRYPEQGGFGGVAAVPGYNSAEKAVAWLGPRLASQGFVVITIATKGRSDQPTARGKQLLAALDYLTAKSPAAVRQRLDPQRLAVTGHSMGGGGSLYAAWTRPGLKAAVPLAPWHSIKNWSGITVPTLVQGGTSDDVAPVGTHAEPIYRSLTGARERAYAESAGADHGTFVREDPLIGALTVAWLKRFVDDDARYEQFLCPAPADPGLTEYRHSCPSS [TEP121]	< 25
STPVHHAAASYTSTAAHHHAPFAVRTTVVPKTAVTTFGGGVIYTPQDTGKPVLGAVVITPGFTDTNANEKEMAELVASQGFVAFAIDTLTTDDLPDLRATQMLAAADYLTGQSAVRSQVSKDDVGLIGYSFGGGGAMQAAQSRPSIKAAIGLMPFDFPPATDPDAMYPAYPHMTTPTLVITGQKDDVADPKDFGKPAYDSIPAGTPKQYLELTGLGHAAGQHVPVATIRTAVTAFLKRYLDGNSAYAKYICPAPKVGGPISASLSSCPKG [TEP069]	25.8
ASPYERGPDPSRTSIEARRGPFAVTSTSVSDLSTPGFGSATITYPTSTAEGTYGAVAVSPGFTASESTIAWLGPRLASQGFVVITFNTQSRLDQPAARGDQLLAALDYLTQRSSTTIRSRIDPTRLAVIGHSMGGGGTLEAAKDRPSLQATVGLTPWNLDKSWPEIRTPSLVIGAESDTVAPVGSHAVPFYQSIPSSTAKAYLELNNASHFAPNTENTTIASSTISWLKLYVDDDDRYRQFLCPGPQSSVTGSVSDYRNTCTS [DP050]	< 25
QQTGPDPTSASLNATAGPFAVSTATVTSPVGFGGGTIYYPTIAGQYGVVALSPGFTATQSSVAWLGRRIATHGFVVVTINTNSTLDQPASRANQLIAALNYVANSASTTVRSRVDASRRAVGGHSMGGGGSLIAAQNNPSLKAILPLTPWNLSTNFSGVQVPTLIVGADGDAVAPVASHARPFYASLPSTVRKAYGELNMASHSTPTSGVNTPIGRYGVTWMKRFVDGDTRYSTFLCGAEHQAYATATVFDRYSQNCPY [ESM127]	< 25
YILASGFVGQLVAQTPSLEALGRQGPYQVAWYTQLPSVPEFSGATLYFPANKAQDFGGVVISPGFFERQENISWWGNYLASHGFAVITFDTNELRDLPPLRADALLATIDLLRGENSRQGSAVRGKILEDSMAVMGHSMGGAAALLLANENSNEIKAAIPFNAGGLRNANFSAVAVPTLVIAGEIDRLAPVNEHAWSHYQTLT [TEP088]	< 25
MAAGGLVAAQAAGAQAAPAQAAAANPYERGPAPTEASIEAARGSYAVSQTTVSSLSVSGFGGGTVYYPTSTSDGTFGAVVISPGYTAYQSSIAWLGPRLASQGFVVFTIDTLTTLDQPDSRGRQLLAALDYLTQSSSVRTRIDSSRLGVMGHSMGGGGTLEAAKSRPSLQAAIPLTGWNLDKTWPEIKTPTLIVGADGDTIAPVATHSEPFYESLPSSLDKAYLELNGATHFTPNSSNTTIAKYSISWLKRFIDNDTRYEQFLCPLPRPSLTIDEYRGNCPHTS [TEP052]	< 25
